Data on ten molecules can be found in article PMC7506991, “Timeless couples G‐quadruplex detection with processing by DDX11 helicase during DNA replication”.

One series deals with Timeless DBD (Homo sapiens, UniProt Q9UNS1 816-954). The experiment in a line: fluorescence anisotropy; 150 mM KCl; FA at 25 C, 10 nM DNA: DBD in 25 mM HEPES-NaOH pH 7.2, 150 mM KCl, 0.5 mM EDTA, 0.005% Tween-20; Timeless-Tipin in 25 mM HEPES pH 7.1, 150 mM KCl, 1 mM DTT, 5 mM MgCl2; EMSA in 25 mM HEPES pH 7.1, 150 mM KCl, 5 mM MgCl2, 1 mM DTT on ice, 1% agarose at 4 C. As to conditions: protein: recombinant, tags: His14-SUMO removed. (Fluorescence polarisation rises when a labelled molecule tumbles more slowly, as on binding a larger partner.)

The target in series [1] is T1, Timeless (optimised construct);Tipin (Homo sapiens;Homo sapiens, UniProt Q9UNS1;Q9BVW5 1-238+=GSTGST+331-1208;1-301, internal_change|). The experiment in a line: fluorescence anisotropy; 150 mM KCl, 5 mM MgCl2; FA at 25 C, 10 nM DNA: DBD in 25 mM HEPES-NaOH pH 7.2, 150 mM KCl, 0.5 mM EDTA, 0.005% Tween-20; Timeless-Tipin in 25 mM HEPES pH 7.1, 150 mM KCl, 1 mM DTT, 5 mM MgCl2; EMSA in 25 mM HEPES pH 7.1, 150 mM KCl, 5 mM MgCl2, 1 mM DTT on ice, 1% agarose at 4 C. Conditions: protein: recombinant;recombinant, tags: His14-SUMO removed;His6-GST removed, copies: 1;1, label: 5' 6FAM.

In series [2] the target is T1, Timeless (optimised construct);Tipin. The experiment in a line: EMSA; 5 uM protein, 5 uM DNA; FA at 25 C, 10 nM DNA: DBD in 25 mM HEPES-NaOH pH 7.2, 150 mM KCl, 0.5 mM EDTA, 0.005% Tween-20; Timeless-Tipin in 25 mM HEPES pH 7.1, 150 mM KCl, 1 mM DTT, 5 mM MgCl2; EMSA in 25 mM HEPES pH 7.1, 150 mM KCl, 5 mM MgCl2, 1 mM DTT on ice, 1% agarose at 4 C. Conditions: protein: recombinant;recombinant, tags: His14-SUMO removed;His6-GST removed, copies: 1;1, label: 5' 6FAM. (A gel shift assay detects complexes by their altered migration in electrophoresis.)

Setting [3] is: G4 intramolecular with ssDNA flanks.

A word on the Kd: it is a measure of binding affinity in units of concentration.

T1 sequence (Q9UNS1 other isoform, or with tags, fused parts or gaps |, chain 1 of 2): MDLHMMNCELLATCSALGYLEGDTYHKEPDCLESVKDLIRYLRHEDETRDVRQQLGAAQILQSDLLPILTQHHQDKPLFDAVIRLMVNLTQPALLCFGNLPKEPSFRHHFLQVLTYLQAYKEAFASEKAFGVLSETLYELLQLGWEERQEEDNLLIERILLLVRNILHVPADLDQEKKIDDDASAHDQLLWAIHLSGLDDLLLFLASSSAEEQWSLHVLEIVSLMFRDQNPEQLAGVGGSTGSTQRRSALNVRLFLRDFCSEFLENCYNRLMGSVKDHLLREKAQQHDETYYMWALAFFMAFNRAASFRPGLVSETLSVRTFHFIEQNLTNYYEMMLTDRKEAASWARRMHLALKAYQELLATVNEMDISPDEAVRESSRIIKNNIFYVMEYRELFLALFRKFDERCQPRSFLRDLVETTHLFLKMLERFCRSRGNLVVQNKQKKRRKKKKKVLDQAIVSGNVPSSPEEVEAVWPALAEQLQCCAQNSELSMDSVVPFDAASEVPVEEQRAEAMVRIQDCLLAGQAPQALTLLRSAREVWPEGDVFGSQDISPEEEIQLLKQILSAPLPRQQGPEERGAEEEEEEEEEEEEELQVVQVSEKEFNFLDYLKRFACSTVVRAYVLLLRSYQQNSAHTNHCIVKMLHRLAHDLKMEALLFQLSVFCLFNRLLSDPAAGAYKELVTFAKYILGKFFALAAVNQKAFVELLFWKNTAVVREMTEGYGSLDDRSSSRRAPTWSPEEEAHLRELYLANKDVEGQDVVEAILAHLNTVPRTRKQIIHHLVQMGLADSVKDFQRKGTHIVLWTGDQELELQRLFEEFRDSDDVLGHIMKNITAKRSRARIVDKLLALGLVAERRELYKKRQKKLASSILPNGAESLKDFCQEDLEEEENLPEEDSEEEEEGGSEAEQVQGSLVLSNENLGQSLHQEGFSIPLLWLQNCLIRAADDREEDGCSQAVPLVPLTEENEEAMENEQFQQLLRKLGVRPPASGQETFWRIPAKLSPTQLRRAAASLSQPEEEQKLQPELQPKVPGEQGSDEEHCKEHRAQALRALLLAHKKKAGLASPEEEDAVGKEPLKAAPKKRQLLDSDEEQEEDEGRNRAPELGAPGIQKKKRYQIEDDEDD
T1 sequence (Q9BVW5 whole entry, change not shown, chain 2 of 2): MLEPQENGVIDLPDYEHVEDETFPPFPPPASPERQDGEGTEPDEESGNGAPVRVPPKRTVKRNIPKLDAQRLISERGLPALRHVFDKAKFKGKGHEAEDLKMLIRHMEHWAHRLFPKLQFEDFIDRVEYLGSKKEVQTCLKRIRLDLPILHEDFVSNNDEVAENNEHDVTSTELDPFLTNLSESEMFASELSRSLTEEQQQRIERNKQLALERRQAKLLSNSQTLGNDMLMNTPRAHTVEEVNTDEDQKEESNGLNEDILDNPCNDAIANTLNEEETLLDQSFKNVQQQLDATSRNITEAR
Timeless DBD, sequence (Q9UNS1 816-954): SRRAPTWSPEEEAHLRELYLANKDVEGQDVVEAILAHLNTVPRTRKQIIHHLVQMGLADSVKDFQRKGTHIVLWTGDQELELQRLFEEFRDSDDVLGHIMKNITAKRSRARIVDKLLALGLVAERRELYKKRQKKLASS

B1: dsDNA (Fig 2D) (dsDNA)
DNA 1: TGAGAGTGAGTAGAGTGAGTAA
DNA 2: TTACTCACTCTACTCACTCTCA
Consider B1, for which, in the series with Timeless DBD (blunt), the Kd is approximately 800 nM.
Take ATAAGAGTGGTTAGAGTGTA (ssDNA) [ss20]: in series [1] (single strand), the binding result is given as “no binding”.

B2: BU1 +3.5 (structured_DNA)
DNA: AGCTAGCACATTTTAAGGGCTGGGTGGGTGCTGTCAAGGGCTGGGTTTTCACGTAGAA
For B2, in series [2] (setting [3]), the binding result was “binds”.

B3: ds20 (dsDNA)
DNA 1: ATAAGAGTGGTTAGAGTGTA
DNA 2: TACACTCTAACCACTCTTAT
Consider B3, for which the binding result in series [1] (blunt) is recorded as “no binding”.
Regarding TGAGAGTGAGTAGAGTGAGTAA (ssDNA) [ssDNA (Fig 2D)], the binding result with Timeless DBD (single strand) is “binds”.

B4: ssHP (structured_DNA)
DNA: ACGAGAGCTAGCACATTTTGAGGCTGCGTTTCGCAGCCTCAATTTCACGTAGAACCTGT
For B4, in series [2] (hairpin with ssDNA flanks), the binding result is listed as “no binding”.
TGAGGGTGGGTAGGGTGGGTAA (structured_DNA) [1XAV]: the binding result in series [1] (G4 intramolecular) is reported as “binds”.
TGAGGGTGGGTAGGGTGGGTAA (structured_DNA) [G4 DNA (MYC, 1XAV) Cy3]: the Kd with Timeless DBD (label: 3' Cy3, G4 intramolecular) was approximately 120 nM.

B5: ssG4 (structured_DNA)
DNA: ACGAGAGCTAGCACATTTTGAGGGTGGGTAGGGTGGGTAATTTTCACGTAGAACCTGT
B5: in series [1] (setting [3]), the Kd was found to be 600 ± 30 nM.

B6: ss (ssDNA)
DNA: ACGAGAGCTAGCACATTTTGAGTGTCAGTAGCGTCTGTAATTTTCACGTAGAACCTGT
Turning to B6, the binding result in series [2] (single strand) is recorded as “no binding”.
